{"source": "patent US8834920B2", "about": "“Liposome composition for targeting egfr receptor” (Alza Corporation, priority 2006, dated 2014)", "molecules": {"B1": {"name": "4316: P190-MMB construct with the longest linker, Flex GGGGS, n 4 (protein)", "chain": "GGDPCTWEVWGRECLQGGGGSGGGGSGGGGSGGGGSCPPCPAPEAAGGPSVFLFPPKPKDTLMISRTPEVTCVVVDVSQEDPEVQFNWYVDGVEVHNAKTKPREEQFNSTYRVVSVLTVLHQDWLNGKEYKCKVSNKGLPSSIEKTISKAKGQPREPQVYTLPPSQEEMTKNQVSLTCLVKGFYPSDIAVEWESNGQPENNYKTTPPVLDSDGSFFLYSRLTVDKSRWQEGNVFSCSVMHEALHNHYTQKSLSLSLGK"}, "B2": {"name": "4315: P190-MMB construct, Flex GGGGS, n 2 (protein)", "chain": "GGDPCTWEVWGRECLQGGGGSGGGGSCPPCPAPEAAGGPSVFLFPPKPKDTLMISRTPEVTCVVVDVSQEDPEVQFNWYVDGVEVHNAKTKPREEQFNSTYRVVSVLTVLHQDWLNGKEYKCKVSNKGLPSSIEKTISKAKGQPREPQVYTLPPSQEEMTKNQVSLTCLVKGFYPSDIAVEWESNGQPENNYKTTPPVLDSDGSFFLYSRLTVDKSRWQEGNVFSCSVMHEALHNHYTQKSLSLSLGK"}}, "key": {"EGF + sEGFR-MMB Complex": {"molecular_target": "T1, EGF + sEGFR-MMB Complex (Homo sapiens, UniProt P00533)", "T1 construct": "made in house", "assay": "Phage ELISA on complex of EGF and sEGFR-MMB", "assay_type": "binding", "protocol": "(§1) The plates were held overnight at room temperature, washed twice with TBST (0.5M Tris Base, 9% NaCl, 0.05% tween, pH 7.6), and loaded with 200 μL per well of Starting Block (Pierce). […] The plates were held at room temperature for 1.5 hours for blocking. Plates were then washed twice with TBST and phage were added. The phage solutions were crude phage supernatant from overnight cultures diluted four-fold with Starting Block. After a one-hour incubation, the plates were washed thrice with TBST and 100 μL of a 1:5000 dilution of phage binding antibody conjugate (α-M13-HRP) was added to the wells. EGF was added if applicable. After a one-hour incubation the plates were washed five times with TBST, 100 μL of POD (BM Chemiluminescence ELISA substrate; Roche Applied Science) was added, and chemiluminescene recorded."}, "MCF-7": {"system": "MCF-7", "assay": "Flow cytometry (FACS) of phage binding to MCF-7 cells", "assay_type": "cell-based, human", "settings": "EGFR overexpressing vs EGFR negative cells", "protocol": "(§2) To evaluate whether the selected peptides from phage display can bind to tumor cells that overexpress EGFR, A431 cells (epidermoid cancer) or an EGFR negative tumor cells, MCF-7 (breast carcinoma) were tested in a flow cytometry assay using fluorescence detection (FACS). For P145, PP146 and their control phage, 2.5×10^5 A431 cells were resuspended in 25 μl of flow staining buffer (dPBS with 1% BSA, 0.09% sodium azide) and incubated with 25 μl of phage clones for 1 hour at 4° C.\n(§3) A431 cells (epidermoid cancer) which overexpress EGFR and EGFR-negative tumor cells, MCF-7 (breast carcinoma) were tested in a flow cytometry assay. Tumor cells (A431 and MCF-7) were harvested with 0.25% tyrpsin-EDTA and washed twice with FACS staining buffer (dPBS with 1% BSA, 0.09% sodium azide). […] After binding at 4° C., cells were washed twice with FACS staining buffer to remove unbound phage and then incubated with 0.5 μg of mouse anti-M13 monoclonal antibody conjugated to FITC (Fitzgerald Industries International, Inc. Concord, Mass.) for 1 hour at 4° C. Mouse anti-M13-FITC incubated with cells without phage was used as background binding. Cells were washed twice with FACS staining buffer to remove unbound detection antibody."}, "sEGFR-His6": {"molecular_target": "T2, sEGFR-His6 (Homo sapiens, UniProt P00533)", "T2 construct": "made in house; host or cells: HEK293E (transient, secreted)", "assay": "Phage ELISA on coated sEGFR-His6", "assay_type": "binding", "settings": "P190 phage, construct sEGFR-His6", "protocol": "as §1"}, "A431 cells [1]": {"system": "A431 cells", "assay": "Flow cytometry (FACS) of phage binding to A431 cells", "assay_type": "cell-based, human", "protocol": "as §2, §3"}, "Control-MMB": {"molecular_target": "Control-MMB (Homo sapiens, UniProt P01857)", "assay": "Phage ELISA on Control-MMB", "assay_type": "binding", "protocol": "(§4) The protein solution was removed and wells were rinsed twice with Tris-Buffered Saline containing 0.05% Tween-20 (TBS-T) using a plate washer (Embla). The wells were blocked with Starting Block in TBS for 1 hr at room temperature and rinsed twice with TBS-T. An equal volume of phage supernatant and Starting Block in TBS were incubated in the wells for 1 hr at room temperature, and the wells were rinsed five times with TBS-T. Anti-M13/horseradish peroxidase conjugate (Amersham), diluted 1:5000 in Starting Block in TBS, was added into the wells and incubated for 1 hour at room temperature, and then the wells were rinsed five times with TBS-T. Finally, chemiluminescent peroxidase substrate (Roche) was added to the wells, and chemiluminescence was measured on a Tecan plate reader.\nThe plates were held overnight at room temperature, washed twice with TBST (0.5M Tris Base, 9% NaCl, 0.05% tween, pH 7.6), and loaded with 200 μL per well of Starting Block (Pierce). […] The plates were held at room temperature for 1.5 hours for blocking. Plates were then washed twice with TBST and phage were added. […] After a one-hour incubation the plates were washed five times with TBST, 100 μL of POD (BM Chemiluminescence ELISA substrate; Roche Applied Science) was added, and chemiluminescene recorded."}, "sEGFR-MMB [2]": {"molecular_target": "T3, sEGFR-MMB (Homo sapiens, UniProt P00533)", "T3 construct": "made in house; host or cells: HEK 293E", "assay": "Phage ELISA on coated sEGFR-MMB", "assay_type": "binding", "settings": "P190 phage, construct SEGFR-MMB", "protocol": "as §4\nPhage were amplified in XL-1 Blue host cells and purified by precipitation with 6% polyethylene glycol-8000/0.5 M sodium chloride. The precipitated phage were resuspended in phosphate-buffered saline in a volume that was 1/100th the original culture volume. For competitive ELISA experiments, plates were prepared by coating wells with sEGFR-MMB or the Control-MMB followed by blocking as described above. […] The binding reaction was incubated for 1 hr at room temperature, and then bound phage were detected with anti-M13/HRP as above. […] Bound phage were washed and detected with anti-M13/HRP as described above. […]"}, "sEGFR-MMB [3]": {"molecular_target": "T3, sEGFR-MMB", "assay": "P190-MMB constructs, solid phase binding (BIAcore, ELISA) to immobilized sEGFR-MMB", "source_text": "In contrast, 190-MMB as the 4316 construct, binds EGFR and the presence of excess EGF promotes its binding."}, "EGFR": {"system": "EGFR", "assay": "FACE (Fast Activated Cell-based ELISA) of EGFR phosphorylation"}, "A431 cells [4]": {"system": "A431 cells", "assay": "FACS of P190-MMB constructs or cetuximab on A431 cells", "assay_type": "cell-based, human"}}}
{"molecule": "DPCTWEVWGRECLQ [Peptide P190]", "values": [{"measurement": "Relative Signal", "setting": "EGF + sEGFR-MMB Complex; P190 phage, construct SEGFR-MMB + EGF", "value": "29408 ± 259"}, {"measurement": "binding to dimeric EGFR in the presence of EGF or TGF-a", "setting": "EGF + sEGFR-MMB Complex; phage ELISA", "value": "increased"}, {"measurement": "binding to A431 compared to MCF-7", "setting": "MCF-7", "value": "bound more effectively to A431 cells"}, {"measurement": "Relative Signal", "setting": "sEGFR-His6", "value": 6}, {"measurement": "binding to A431 cells in the presence of EGF", "setting": "A431 cells [1]", "value": "increased"}, {"measurement": "binding to A431 cells in the presence of EGF and cetuximab", "setting": "A431 cells [1]", "value": "decreases"}, {"measurement": "binding to A431 tumor cells", "setting": "A431 cells [1]; anti-phage-FITC, 4° C.", "value": "bind"}, {"measurement": "binding to Control-MMB", "setting": "Control-MMB", "value": "fails to bind"}, {"measurement": "Relative Signal", "setting": "sEGFR-MMB [2]", "value": "3937 ± 335"}]}
{"molecule": "KTCVSTTFDLWFVCFA (Random peptide) [Peptide P176]", "values": [{"measurement": "binding to A431 relative to positive control phage displaying EGF", "setting": "A431 cells [1]", "value": "comparable"}]}
{"molecule": "SGCLDALWQCVY (Random peptide) [Peptide P174]", "values": [{"measurement": "binding to A431 compared to MCF-7", "setting": "MCF-7", "value": "greater to A431 than to MCF-7"}, {"measurement": "binding to A431 relative to positive control phage displaying EGF", "setting": "A431 cells [1]", "value": "comparable"}]}
{"molecule": "TLCRSFFHPLCYA (Random peptide) [Peptide P146]", "values": [{"measurement": "binding to A431 relative to positive control phage displaying EGF", "setting": "A431 cells [1]", "value": "weaker"}]}
{"molecule": "VLCHRYYHPICYT [Peptide P145]", "values": [{"measurement": "binding to A431 compared to MCF-7", "setting": "MCF-7", "value": "greater binding to A431 than MCF-7 cells"}, {"measurement": "binding to A431 relative to positive control phage displaying EGF", "setting": "A431 cells [1]", "value": "weaker"}]}
{"molecule": "B1", "values": [{"measurement": "on-rate", "setting": "sEGFR-MMB [3]", "value": "much more pronounced on-rate than the other constructs"}, {"measurement": "binding rank among linker variants", "setting": "sEGFR-MMB [3]; ELISA and FACS", "value": "best binder"}, {"measurement": "interference with EGF activation of EGFR", "setting": "EGFR", "value": "nor interfere with EGF activation of EGFR"}, {"measurement": "EGFR phosphorylation (receptor activation)", "setting": "EGFR; absence of EGF", "value": "did not induce EGFR phosphorylation"}, {"measurement": "effect of EGF on binding to A431", "setting": "A431 cells [4]; excess rhEGF", "value": "enhanced binding"}]}
{"molecule": "B2", "values": [{"measurement": "binding to A431", "setting": "A431 cells [4]", "value": "little binding"}]}
